Test results from US6335019B1, “Methods for treating sensitivity to protein allergen using peptides which include a T cell epitope recognized by a T cell receptor specific for the protein allergen” (Immulogic Pharmaceutical Corp., priority 1989, dated 2002).

How the values were obtained:
[1] = tested on: human IgE (ragweed allergic patient sera); test: SDS-PAGE Western blot (and ELISA) of ragweed allergic patient IgE binding to pollen, affinity purified and recombinant Amb a I / Amb a II; parameters: key to IgE binding, summarized Western blot data: −: no signal over background; +−: barely discernable over background; +: clearly positive; ++: strongly positive; +++: highly positive; details: for Extent of specific IgE binding relative to Amb a IB or Amb a II (in words): patient #295, FIG. 20; for Human IgE binding (in words): Western blot (FIG. 17) and/or ELISA, ragweed allergic patient IgE
Experimental: As represented in FIG. 1A, a selected monoclonal antibody (designated 4B5/B7) which recognizes an Amb a I preparation unsubjected to denaturing conditions was used to affinity purify from pollen extract a single protein, which is referred to as affinity purified Amb a I. This was carried out, using known techniques, by producing the desired monoclonal antibody, isolating it in large quantities from ascites and immobilizing it on Sepharose (Pharmacia). Aqueous pollen extract was passed over the monoclonal antibody-containing column and a protein species was eluted.
(§1) Furthermore, full-length and truncated cDNAs encoding several members of the Amb a I multigene family, as well as Amb a II, were cloned in-frame into the expression vector pTrc99 (Amann et al. Gene, 69:301-315, (1988)) and transformed into the JM109 host. Expression of recombinant Amb a I and Amb a II protein was induced by 1 mM isopropyl-β-D-thiogalactopyranoside, cells were harvested, lysozyme treated, sonicated and insoluble inclusion bodies recovered by a low speed centrifugation. Recombinant Amb a I and Amb a II protein present in the recovered pellet was solubilized in buffer containing 8M urea, 50 mM Tris HC1 pH8.0, 50 mM NaCl, 1 mM EDTA, 1 mM dithiothreitol, 1 mM phenylmethylsulfonyl fluoride. After solubilization, the crude urea lysate was dialyzed at 4° C. against PBS. […] This antigenic cross-reactivity is consistent with the observed sequence homology of the cDNAs (see FIG. 16).
Comparison of human IgE binding to recombinant Amb a I and Amb a II proteins with anti-peptide and monoclonal anti-Amb a I antibodies have provided data consistent with the conclusion that the N-terminal portion (historically referred to as the β-region) of Amb a IA includes the major IgE eptiope(s).
Affinity purified Amb a I was electrophoresed, Western transferred (Towbin et al., Proc. Natl. Acad. Sci. USA, 76:4350 (1979)) and probed with a variety of antibodies, including IgE from an allergic patient (FIG. 17). In pollen extract Amb a I is not only present as an intact 38-KD species, but also characterized by its component 26KD alpha chains and 12-KD beta chains which are formed by enzymatic cleavage. The intact 38-KD species and the alpha chain are clearly detected using rabbit anti-Amb a I, polyclonal affinity purified anti-RAE 16 and monoclonal anti-Amb a I JBIE3-4 (FIG. 17); RAE 16 peptide has the sequence RTDKDLLENGAIC derived from amino-acids […] of Amb a IB, FIG. 16). Affinity purified Amb a I (partial sequence presented in Table 1) as well as chromatographically purified Amb a II (partial sequence presented in Table 2) are bound on Western blots by these antibodies as well as by patient IgE (FIG. 17). The goat anti-Amb a I polyclonal antibody also binds multiple Amb a I and Amb a II species on a two dimensional Western blot of pollen extract (FIG. 18). The Western blot was performed as outlined below. […]

[2] = tested on: goat anti-Amb a I antibody; test: Western blot of E. coli-expressed recombinant Amb a I / Amb a II with goat anti-Amb a I antibody (FIG. 19); type: binding
Experimental: as §1
Isoelectric focusing was done on a Hoeffer gel apparatus with 15 μg of crude soluble pollen protein. The gel consisted of 7.5% acrylamide with 3.5% Pharmalytes pH 4.5-5.3 (Pharmacia) and 3.5% Ampholines pH 3.5-10 (LKB), run at 13W for 3.5 hours until a constant voltage was reached. The gel section was placed on a slab of 10% acrylamide SDS-PAGE and electrophoresed for 3.5 hours at 40 mA according to the protocol cited. The proteins were transferred overnight in phosphate buffer to 0.1 micron nitrocellulose (Schleicher and Schuell) at 0.2A. The blot was rinsed in blot solution (25 mM Tris-CHl pH 7.5, 0.171 M NaCl, 0.05% Tween-20; Sigma). The first antibody incubation was overnight at room temperature with a […] of goat anti-Amb a I IgC (obtained from Dr. David Marsh) in blot solution. The excess first antibody was removed with three 15 minute rinses with blot solution. The second antibody was a 1:2,500 dilution of biotinylated swine anti-goat IgG (Boehringer-Manneheim) in blot solution for two hours. The blot was then rinsed with blot solution three times for 15 minutes and incubated for 1 hr in blot solution with 2 μCi I^125 streptavidin (Amersham). The blots were rinsed with blot solution until the waste wash was down to background. The blot was then exposed to film at —80° C. overnight. In the case of one-dimensional SDS-PAGE Western blots (FIGS. 17, 19 and 20) the isoelectric focusing step was omitted. When human sera was used to probe the Western blots (FIGS. 17 and 20), 10% human plasma in 1% milk in blot solution was incubated overnight with the blot prior to using as second antibody biotinylated goat anti-human IgE.

Molecule	IgE binding, summarized Western blot data ([1]; patient 151)	IgE binding, summarized Western blot data ([1]; patient 222)	IgE binding, summarized Western blot data ([1]; patient 291)	IgE binding, summarized Western blot data ([1]; patient 295)	Binding by goat anti-Amb a I antibody (in words) [2]	IgE binding, summarized Western blot data ([1]; patient 296)	Extent of specific IgE binding relative to Amb a IB or Amb a II (in words) [1]	Human IgE binding (in words) [1]	Human IgE binding (in words) ([1]; listed as 4B5/B7 affinity purified Amb a I)	Human IgE binding (in words) ([1]; listed as Affinity purified Amb a I)
Amb a IB: E. coli expressed recombinant Amb a IB, used as crude bacterial lysate (protein) LYFTLALVTLLQPVRSAEDVEEFLPSANETRRSLKACEAHNIIDKCWRCKADWANNRQALADCAQGFAKGTYGGKHGDVYTVTSDKDDDVANPKEGTLRFAAAQNRPLWIIFKRNMVIHLNQELVVNSDKTIDGRGVKVNIVNAGLTLMNVKNIIIHNINIHDIKVCPGGMIKSNDGPPILRQQSDGDAINVAGSSQIWIDHCSLSKASDGLLDITLGSSHVTVSNCKFTQHQFVLLLGADDTHYQDKGMLATVAFNMFTDHVDQRMPRCRFGFFQVVNNNYDRWGTYAIGGSSAPTILSQGNRFFAPDDIIKKNVLARTGTGNAESMSWNWRTDRDLLENGAIFLPSGSDPVLTPEQKAGMIPAEPGEAVLRLTSSAGVLSCHQGAPC	−	+−	−	+	binds specifically					
Amb a IA: full-length recombinant Amb a IA, amino acid 10-398, E. coli expressed, used as crude bacterial lysate (protein) LYFTLALVTLLQPVRSAEDLQEILPVNETRRLTTSGAYNIIDGCWRGKADWAENRKALADCAQGFGKGTVGGKDGDIYTVTSELDDDVANPKEGTLRFGAAQNRPLWIIFERDMVIRLDKEMVVNSDKTIDGRGAKVEIINAGFTLNGVKNVIIHNINMHDVKVNPGGLIKSNDGPAAPRAGSDGDAISISGSSQIWIDHCSLSKSVDGLVDAKLGTTRLTVSNSLFTQHQFVLLFGAGDENIEDRGMLATVAFNTFTDNVDQRMPRCRHGFFQVVNNNYDKWGSYAIGGSASPTILSQGNRFCAPDERSKKNVLGRHGEAAAESMKWNWRTNKDVLENGAIFVASGVDPVLTPEQSAGMIPAEPGESALSLTSSAGVLSCQPGAPC	+	+−	+++	+++	binds specifically	++	far greater extent			
Amb a IC: E. coli expressed recombinant Amb a IC, used as crude bacterial lysate (protein) LYFTLALVALLQPVRSAEGVGEILPSVNETRSLQACEALNIIDKCWRGKADWENNRQALADCAQGFAKGTYGGKWGDVYTVTSNLDDDVANPKEGTLRFAAAQNRPLWIIFKNDMVINLNQELVVNSDKTIDGRGVKVEIINGGLTLMNVKNIIIHNINIHDVKVLPGGMIKSNDGPPILRQASDGDTINVAGSSQIWIDHCSLSKSFDGLVDVTLGSTHVTISNCKFTQQSKAILLGADDTHVQDKGMLATVAFNMFTDNVDQRMPRCRFGFFQVVNNNYDRWGTYAIGGSSAPTILCQGNRFLAPDDQIKKNVLARTGTGAAESMAWNWRSDKDLLENGAIFVTSGSDPVLTPVQSAGMIPAEPGEAAIKLTSSAGVFSCRPGAPC	+	+−	+++	+++	binds specifically	++	far greater extent			
affinity purified Amb a I: protein affinity purified from pollen extract with monoclonal antibody 4B5/B7 (protein) AEDLQEILPVNETRRLTTSGAYNIIDGCWRGKADWAENRKALADCAQGFGKGTVGGKDGDIYTVTSELDDDVANPKEGTLRFGAAQNRPLWIIFERDMVIRLDKEMVVNSDKTIDGRGAKVEIINAGFTLNGVKNVIIHNINMHDVKVNPGGLIKSNDGPAAPRAGSDGDAISISGSSQIWIDHCSLSKSVDGLVDAKLGTTRLTVSNSLFTQHQFVLLFGAGDENIEDRGMLATVAFNTFTDNVDQRMPRCRHGFFQVVNNNYDKWGSYAIGGSASPTILSQGNRFCAPDERSKKNVLGRHGEAAAESMKWNWRTNKDVLENGAIFVASGVDPVLTPEQSAGMIPAEPGESALSLTSSAGVLSCQPGAPC								bind human IgE	readily detectable IgE reactivity	bound
